Measurements: the DeepSol protein solubility set

test: soluble on expression in E. coli; label from the status in PepcDB or PDB records

Row | Sequence | soluble on expression in E. coli
1 | MEFGEKLIHLRKKNRLTQKQLAAKIGTTASTISKYENDNHRPPIFILAKLAEILGTTTDFLLDDVAGLREKNSVNAFPLIGNPELEKWYLELPYTYSEEELLMLKRIADAIENKK | not soluble
2 | DLAKEGKLHSIVDSLFYSRLYKKEKRVYGDTDYDRFDFFTNRFLQSFNKAAFDDFFSSRVEYPNQIKILFQMFFTKMEKLKTD | not soluble
3 | MISLVLGLLTSKLHYEQTYYTEIAKRARLYHNVVAQFTPFCIDSKTDLVSGLIYDTDTGKWKEQTFPIPSYIYDRYSFHEETDFEKAKSIIHSLHNRPSTTFLNNTLINLSELHDLFLTNKKLSPYIPKFEVATIQNIFKLLLKSKDIIIRPTNIHSKDNLYRVAYKNKTFHIDTVNEKYHTSLSIKRTDEFISWCKSNIRSSRYIVHTMLQPPNQLTYPLHIRTILQKNKEQTWNVIGQFIQKSSFPNQLLPSATDDDSLHSFSKIKYVLSSTGVQLLQDALHDIINEVFQTLDQSYSSLFELELSTIMDQKGAIWLMYVNTIPPYEQYIRHSDSLAEKIFHGPLKFSRFTP | not soluble
4 | SLRFVDEYRAPEQVMQLIEHLRERASHLSYTAERPLRIMEVCGGHTHAIFKFGLDQLLPENVEFIHGPGCPVCVLPMGRIDTCVEIASHPEVIFCTFGDAMRVPGKQGSLLQAKARGADVRIVYSPMDALKLAQENPTRKVVFFGLGFETTMPTTAITLQQAKARDVQNFYFFCQHITLIPTLRSLLEQPDNGIDAFLAPGHVSMVIGTDAYNFIASDFHRPLVVAGFEPLDLLQGVVMLVQQKIAAHSKVENQYRRVVPDAGNLLAQQAIADVFCVNGDSEWRGLGVIESSGVHLTPDYQRFDAEAHFRPAPQQVCDDPRARCGEVLTGKCKPHQCPLFGNTCNPQTAFGALMVSSEGACAAWYQYRQQESEA | soluble
5 | MSFGLVGTVNNNGWKSPFRHETKYRAGYDKFKYYKTHYRGAKKAGTNDDRWRWTAWFDLDFAHQKIVLIERGELHRQADLKKSDPATNETSKTVWGSIKEKLLQNVNNLHSEKGVFLWFRQSGFTTTRN | soluble
6 | LAIAAIRNLLIKNDIEILAELTEGGSAVQRVETLKPDIVIIDVDIPGVNGIQVLETLRKRQYSGIIIIVSAKNDHFYGKHCADAGANGFVSKKEGMNNIIAAIEAAKNGYCYFPFSLNRFVGSLTSDQQKLDSLSKQEISVMRYILDGKDNNDIAEKMFISNKTVSTYKSRLMEKLECKSLMDLYTFAQ | not soluble
7 | GAMGSMNGIDDLLNINDRIKQVQNERNELASKLQNLKQSLASNDTEVALSEVIAQDIIEVGASVEGLEQLRAKYGDLQILNKLEKVAVQQTQMQAGVDKLDSFERQLDELAEQPPDQFTLDDVKALHSKLTSVFATVPQINNIDSQYAAYNKLKSKVTGKYNDVIIQRLATNWSNTFDQKLLEAQWDTQKFASTSVGLVKCLRENSTKLYQLSLLYLPLEEETQNGDSERPLSRSNNNQEPVLWNFKSLANNFNVRFTYHFHATSSSSKIETYFQFLNDYLAENLYKCINIFHDDCNGLTKPVIHEQFINYVLQPIRDKVRSTLFQNDLKTLIVLISQILATDKNLLNSFHYHGLGLVSLISDEVWEKWINYEVEMANRQFINITKNPEDFPKSSQNFVKLINKIYDYLEPFYDLDFDLLVRYKLMTCSLIFMNLTSSYLDYILTVDSLNETRTKEQELYQTMAKLQHVNFVYRKIKSLSSNFIFIQLTDIVNSTESKKYNSLFQNVENDYEKAMSTDMQNSIVHRIQKLLKETLRNYFKISTWSTLEMSVDENIGPSSVPSAELVNSINVLRRLINKLDSMDIPLAISLKVKNELLNVIVNYFTESILKLNKFNQNGLNQFLHDFKSLSSILSLPSHATNYKCMSLHELVKILKLKYDPNNQQFLNPEYIKTGNFTSLKEAYSIKYLKDTKIQDALYRIIYGNIL | soluble
8 | MTIQTVIKENAYFDSVTLMTISTRANELAGVKTAMIGMGTDMNLEVIRNVGLYTPALDHVTTGDLLIVLDLDDQANSEEILQQVDELFTKKKKTASSEVTYKTLDSALHEEPDANLVVISVNGKFAAREAHKALDQQKHVMLFSDNVTVDEELALKQKAHEKELFVMGPDCGTAIINGVGLCFANEVRSGDIGIVGASGTGSQEVSVQIHKYGYGISQLIGTGGRDLSAEIGGLMMLDGLDTLMVDEQTKAILLISKPPAPEVTEKILKKLAVSTKPVVIYFIGSEQTERKIDNVTFATSSLDAVQKVIQFSQTQEAETSLYQNPTGATLTAIQQQQAPSQKFVRGLFCGGTLCDELLYALTEVSDDVYSNIHKISERQLANPDHSQAHTLIDFGDDRFTEGRPHPMIDPTSRITRILQEAKDPEVAVLALDFELGYGSHENPVGVLAEALKEAKAIAKADGRELAIIGYVLGTEEDPQDIHEQRKILEDLEVLVVDSSHQLCEATKTFVKGANEHEQK | not soluble
9 | GIDPFTMLSSGDLTSASWELVVRVDHANGEQQTEITLRVSGDLHIGGVMLKLVEQMNIAQDWSDYALWWEQKRCWLLKTHWTLDKCGVQADANLLFTPQHKM | soluble
10 | MGSDKIHHHHHHMDLITKQDGTTLHYSTMGQGYPVVLVHTAFDNYAVFNDLAKVLAKSFQVVLIDLRGHGYSDKPRNIEFYDFADDIKFLLDAIYIDEAAFIGHEMGALIAADMSVRNPGYISSITLVNPTSIEGELPEERLFRKYAHKIRNWEDDKQEKFLDKRRYYKARKMNKFLKHVVDTNSISTKEEIQAVKDVFKSEGIADVFKHVQVPTLIVAGEHGERTTTLEAKEVADLIQHCEFNVYQHSSAYPFVEEQAQFTQETTNFIQQHAPK | not soluble
11 | MKENFQIHIWLGLLLCLLGMSCSDDTPAKGDDPGNGNTELEVNEWIESVMRSDYLWNNDIPAQNKLDFSADPQTFFRSMLSLKDGKTRNGKHLYYYSYMEKNKDYKARTSIDADDTYGMEFTLFNVVNDSNQPLGYYYARILYVLPNSPASSAGLERGDWIVGVKGRNNINSDNYGILLNGDRTQWLVKRGDTEVRTIDIEASRAVEDNPLFYHNVYTRGDKKIGYLVYNHFTSGPNGYSDRTYDEEMKKIFAGFQAQGVNEFVLDLRYNGGGYENSANMLAGLLIPEASRKKVFAVFSDNKGQSYSNDFCVETKGTAGYLKLNSNRIYILTSQSTASSSEVVINSLNPFMDVILIGELTEGKNVGMEMQKNDKYEWIYWPITLRVTNAVNDDYSAGFKPDIEWNEYDLTQNPTDALLPLGDPDEFMLGKAISLITGINRSARSMNTLGIFSKCL | not soluble
12 | MGSDKIHHHHHHMKRPISQQSVQVALGQAALPVGVLTFNKDGARESSTFAYHEAWLRSADRFEISPDLQLVQGQQFRKAPSRDDSIFPFAFADTEPDGWGCRVIARDHARRRKSAQEKGRDVPHAGLTEMDYLLGVDDLSRIGALRLADEAGNYLRSIEDGGRGTPPLLELGHLIGATRAVEMNRETAADLKYLRGRGTSLGGMRPKCTILDEDGQLAIGKFPSINDDRSVTRGEVLALHLAAAAGITVAQSRIVMSEEIPVALVRRFDRVTNGGRIPYLSAGSMLQASRQEEHAYTQIADCIIARCADPKRDLEELWRRLVFNLLITNVDDHVQNHGFLHVEHGLWRLAPAFDINPFPDKDPELKLWLNEDYGPVDSIEAVMNEARYFRLSADEAKRILGEVRNAVGDWKRVAKSAPVGMTDDDLDAFQPAFENGQTEAAAALL | not soluble
13 | DPAGLLDLRQGMFAQLVAQNVLLIDGPLSWYSDPGLAGVSLTGGLSYKEDTKELVVAKAGVYYVFFQMELRRVVAGEGSGSVSLALHLMPLRSAAGAAALALTVDLPPASSEARNSAFGFQGRLLHLSAGQRLGVHLHTEARARHAWQLTQGATVLGLFRVTPEIPA | soluble
14 | MGSDKIHHHHHHMFLMVIINPTDGMSAMSAPLDTDQLQTFIAIVDTGSFTKAAGRVFKTQSAVSMQMRRLEERIGKQLFIKDGRGNRLTAEGEKLLNYARRIVRLNSEAIAAFDDNRLEGTLRIGTPDDYADRYMPEIIGRFAKTHPNVELYIVCEPSSDLAEKMARGELDIALVTHNPATRQSDVMRTEPLCWVASANHPLRDDAPVPLAVGRRDCNWRQLACSALDADGRDYQILFTSWSSTVVAAAVLAGLAVSVLPESALRTGMKVLGQLDGFPPLPPVQIGIMKRPGMSPSLMNAITDHIAACLDNINPTAIEDDMDGETKTYSRYYPRLRAGHMIPGW | not soluble
15 | MQKLIMGNWKMNGNSTSIKELCSGISQVQYDTSRVAIAVFPSSVYVKEVISQLPEKVGVGLQNITFYDDGAYTGEISARMLEDIGCDYLLIGHSERRSLFAESDEDVFKKLNKIIDTTITPVVCIGESLDDRQSGKLKQVLATQLSLILENLSVEQLAKVVIAYEPVWAIGTGVVASLEQIQETHQFIRSLLAKVDERLAKNIKIVYGGSLKAENAKDILSLPDVDGGLIGGASLKAAEFNEIINQANKICTE | not soluble
16 | MDTTKTIAALFDFDGVIMDTETQYTVFWDEQGRKYLNEEDFGRRIKGQTLTQIYEKYFSDLPEAQQEITAGLNIYEKSMSYEYIPGVEAFIADLRKHGAKIAVVTSSNEEKMQNVYNAHPEFKGMVDRILTGEMFARSKPAPDCFLLGMEIFGATPENSYVFEDSFHGLQAGMTSGATVIGLATTNTREAITGKAHYIIDDFSEMTFEHLLALHR | not soluble
17 | MTHHHHHHAMGPAAGQAYDAGNLDVASSPVKPTLSITKKTLTAAEAPNAKVTMELSVEGAADKYAATGLHIQFDPKLKLIPDEDGALATAGRAARLLELKKAEADTDNSFFTATGSSTNNGKDGVLWSFVLQVPADAQPGDKYDVQVAYQSRTTNEDLFTNVKKDEEGLLMQAWTFTQGIEQGYIQVESTTSLE | soluble
18 | MGSDKIHHHHHHMHASVKFRIAEIINSTMPSAEWRLLKQIGVNEVVGTLPRDPSDWRGDQPDLPWDYAPLSSLKRRLSEYGLTLSAIEDNPPMEKIKYGVKGKEDELENVLRLIENMGRLKIGVWCYNWMAGQGWMRSRISIPDRGGAEVTGFSLSDIEEYPPPKMGKIDAETLWKNLAWFLDNVIPVAEDSGVKIAMHPDDPPLEEIRGVSRIMNNVKAFDKLIEMKRSEYNTITLCQGNFTLMTEDLPSAIRHFVRKKAVSFVHFRDVKGKKDNFIESFIDDGKTDTASCMSAYIEEGFDGIMRTDHTPTLYGDTYKVPGYSILGRLHAIGYIQGLIDGVSMV | not soluble
19 | METNLFKLSLDDVETPKGSMLDLKISQSKIALPKNTVGGTILRSDLLANFLTEGNFRASVDLQRTHRIKGMIKMVATVGIPENTGIALACAMNSSIRGRASSDIYTICSQDCELWNPACTKAMTMSFNPNPCSDAWSLEFLKRTGFHCDIICVTGWTATPMQDVQVTIDWFISSQECVPRTYCVLNPQNPFVLNRWMGKLTFPQGTSRSVKRMPLSIGGGAGAKSAILMNMPNAVLSMWRYFVGDLVFEVSKMTSPYIKCTVSFFIAFGNLADDTINFEAFPHKLVQFGEIQEKVVLKFSQEEFLTAWSTQVRPATTLLADGCPYLYAMVHDSSVSTIPGDFVIGVKLTIIENMCAYGLNPGISGSRLLGTIPQ | soluble
20 | SVKRKSSEGQEQDGGRGIPLPIQTFLWRQTSAFLRPKLGKQYEASCVSFERVLVENKLHGLSPALSEAIQSISRWELVQAALPHVLHCTATLLSNRNKLGHQDKLGVAETKLLHTLHWMLLEAPQDCNNERFGGTDRGSSWGGSSSAFIHQVENQGSPGQPCQSSSNDEEENNRRKIFQNSMATAELFVFLFAPLVHRIKESDLTFRLASGLVIWQPMWEHRQPGVSGFTALVKPIRNIITAKRSSPINSQSRTCESPNQDARHLEGLQVVRETFQSDSISPKATISGCHRGNSFDGSLSSQTSQERGPSHSRSTFHFPP | soluble
